Reference: patent US6025179

Test system: SnaBI restriction endonuclease (R.SnaBI) (Sphaerotilus natans)
Test: cleavage_in_vitro
Conditions: crude extract, 37 C, 15 min and 1 h; about 8x10^6

Substance: T7 phage DNA (SnaBI substrate)
- activity (units/g wet cells): 8e+06
